This note sets out measurements from the DeepSol protein solubility set.

The nature of the series: soluble on expression in E. coli; label from the status in PepcDB or PDB records.
“GAMAPATCEKPKFLEYKTCVGDLTVVIAKALDEFKEFCIVNAANEHMTHGSGVAKAIADFCGLDFVEYCEDYVKKHGPQQRLVTPSFVKGIQCVNNVVGPRHGDNNLHEKLVAAYKNVLVDGVVNYVVPVLSLGIFGVDFKMSIDAMREAFEGCTIRVLLFSLSQEHIDYFDVTCK”: the “soluble on expression in E. coli” value is on record as “soluble”. For “MDPAKVNTVDEDIKFKEVPGITNILLLSSDARPGEDVSRSDSIMILTIDNINKKLKVTSLMRDMLVKIDGHGEEKLNHAFAYGGPTKTIETIQNNFGIKLNNYVIVDFNAFVKVIDAINGIEVTVKDYELDELNKYILDGGGSEEDLLPSPGTYNLNGYQALSYARIRKVGNGEYERTERQRAVLQIALEKVKDMSTVKLVSLLNELFPYVKTNISLGNAMDYGFTALNVGKKCNFEIEQFRVPLDSISKGGIINNKGWVFVIDKVETSKALQEFIFNDNKNYEPDTSNFDSIIEQYFNDYDIKDDTTHPLEHHHHHH” the value was “soluble”; for “MAYTLHKMTKKLHKQKFFQFAAFIQKKFDSPLFKAIRKRSCHWSDISNHNDNYDLTVASYNVHKCIGVDKVFNPTRIVQVITELQVDILALQEADKRFGERIGLIDLQLLKAETGLIPVPLNTMSPHGHGWHGNALFLRKGHVCDTLQITLPGIEPRGAVIADLEMEVGPIRVIAAHFGLLRHSRNQQTKMLLSLLQKRPLMPTLLIGDFNEWRIGKGSSLNHFAPYFDSTVGTVPSFPSRFPLLALDRILAFPHQLVIRIENHHSPLARIASDHLPIKAYLDLSHAMATLKK”, “not soluble”; for “MGSDKIHHHHHHMKDYTYSVTEINEYIKDLIEGDPYLTNVSVYGEISGVRPRKGHIFFSLVEENARLECVIFGGDNMGIRLQEGRMALVEGSVSVYIPHGTYRFICSNVRYLDQAGMYQIKFETTLKKLLEEGLLSRPKKTVPRFPRKIGIITSRDSAALQDVIRTARERKAPIEIYVFHTSVQGDSAREELIKALRKANEYDLDLVMIVRGGGSKEDLWVFNEEDVIREILRLRHPVVTGIGHEIDRVIADFVADVSMHTPTGAAEYVIPDASEIHEDLDSFFEKLITSLSNRFDMEERRLETLYFRLRMIGRRKLELNEFKIERVKELAAKLRKKLMDYFEHNQKKLDSLGRMLESLNPLRPLERGFVLVKKDEKIVKESTDLKRGDVVSLVFKDGTKKAQVIG”, “not soluble”.

For “MSLKKMMDSTTVIITTTDNRVLLQKRDENPDIEYSGYYSLVSGYLEEEETPLDGIIRELKEEFEHKKSQKVHFSSITYLGSEYRADYDRWEYIHHTYLMDDAADIRILEGESFVLLDMDECLRLENLAPHHKLFLLKYRAGLCKIDVREQSKKMFDEITVRDLIKVESVGDVKNYSLLEAGTGFVIGEDTTLSASIPAVEAAKYIGFLQFVPKVLRGNHYHFRKVEYMLILQGRMHATFQKYDDSEAVIEEIWEKGDLVRTLPGCVHTLTALGESNVLTIEFSPQPYVARDVLMNDKEGHHHHHH”, the “soluble on expression in E. coli” value is “soluble”. For “SKARTVAGPVGGSLSVQCPYEKEHRTLNKYWCRPPQIFLCDKIVETKGSAGKRNGRVSIRDSPANLSFTVTLENLTEEDAGTYWCGVDTPWLQDFHDPVVEVEVSVFPAS” the value was “soluble”; for “MSFLSNSLNRISFNSFSNMHSLLSSKFQEHYNDIYDWNGNIENIYKANTFISIGYKLLYPLGVLEANFDKEKLKKFLFRICSYYNDIPYHTSLHAAQVAHFSKSMLFMLDMNHKISAIDEFCLHISSLCHDTGHPGLNNYFLINSENNLALTYNDNSVLENYHCSLLFKTLKNPNYNIFEHYPYHIFISCKKNIIKAILSTDMKNHFEYISDFRTSKEFIDYDNLSNDQIWQIFCLILKASDIGHSTLEWNKHLEWTLKINEEFYLQGLLEKSLNIQNSFLCDINTMNKLALSQIDFLKHLCIPLFNELNYICKNNDVYTHCIQPIENNIERWESHKNDNQNLGLHEKYKEENLLSKLELIKFE”, “not soluble”. For “GMNQAMDTKQIAPFTLALPEGEALPLVCDSPHSGTFYPADFGAVVAPERLRGGEDTHVDALWEAVPRVGGTLLAATFPRVYIDPNRMLDDIDPAQLEGPWPTPLAPGEKTRLGYGLIWSNVDAATPIYDRKLTVAEVQRRINRYYRPYHAALTEAVEGAYQRFGAVWHLNLHSMPNNAYERLKIQSPRPLADFVLGDRDGTTCEPGLVDLVERELREKGYTVARNDPYKGVQLIAQIGRPAERRNSLQIEIRRPLYMEEGTRERNEGFATLQRDLTLLTLRIAEYVRRGV” the value was “soluble”.

As for “MFIGGAIISFLFLFGYMWKEAHSNRIRHVTLSFPHFPDNGPPLTIFFISDIHRRSVSCRMLETVKGKADLVVIGGDLAEKGVPAARVRENVRRLQTVAPVYFVWGNNDDEVDYDLQSLLEEERVYVLKNKAEVWEHGGVPIALIGVGDVSRKEADIARALEHVPPESFRILACHNPAIIARLEDEQHISLVLSGHTHGGQIRLFSFGLYEKGGLKWHGNTALFTSNGYGTTGVPLRLGAPAETHLIKIVPGKLATEKLEHHHHHH”, the “soluble on expression in E. coli” value is recorded as “soluble”.

Turning to “MGSDKIHHHHHHMSISEQCVIEIDKYIDYFKKNTSQPNILAKLFKTDSSYYVYDTGTNKVLTCGEYEYSILGKIIDNKFDEISRINDDADKSGFYEALENVRQAIEKEDILRGGKEWKFVSKGHFEELDKKLNYELDQITLELTEKCNLRCRYCIYNESYEHKRNFGNKDMPIEIAEKAIDYANLHSGKEKGVGVTFYGGEPLVNFKLLKHSIEYSRKVIKDKKLTFSLTSNLTLMTPEIATYLASIENLTILCSIDGPEEIHDSYRKDINGNGTFKRAIRGLKYLIEAFGDKANKAVMMNMVFTPPYSIEKVNKIETFINSLDWLPKGLRISMTYPSTGSVDDTPPKGCEKNYGMELIQWSESKYKSELKSDGKIDMFNEEFVVHPILRIHGRRISAKSESGYPVNGCCIPGSRKLYVTVDGNFQICERINGSPIIGNVFNGIDENKIKNEVIDEFINKSIKDCSRCWAARLCNVCYSHCYTDGKLDMKEKKRYCIRSRERALRSLVFYHKCAEINPEKLKYLNKIEVS”, the “soluble on expression in E. coli” value is listed as “not soluble”. As to “MTSGLERLSNLLSKKDSVFVSDLLREAKVNELDETLSTTRLNHLIDKGYERITLQLDLGGESPGYLEKDKHYREADAALLNVIYPTNLSKINTRRKEQV”, the “soluble on expression in E. coli” value is listed as “not soluble”.

On to “MYIVIMGAGRIGTLVARMLESEGHDVAIIEMNRERAREISEYISGLVIEGDATDQKVLENANIKNANAFAALTGKDDANILACILAKHLNPNIMTILRITDPGKKKIFEDVKELKTYFDIVVSPEDIAANYIFRTLVTPGFNRVLLPREGAEIIQFQIDEDCEVAGKPVKELNLPKDSLIIAVYDEKGNLTIPSGDTIIPKKGQVIIFAKNSALQEVKKIMEKKKKEQ”, for which the “soluble on expression in E. coli” value is given as “soluble”. In the case of “MCEISVVMPVYNAEMHIKDAIESVLEQSFVDFEFILIDDGSTDHTSSIIQSYNDKRVRLIQNSHNFIESLNLGIENSLGKYMARMDGDDIMHIDRLKIQYAIMQEYPDVTVCGTWMNSIGTYSQTNGLLSTLSGWVEQPLLKFTKGNFLFHPTTMIRMDFLKKNALKYENYPYAEDFKFWVEIAKSGGRFYIDSQPLLYYRISDSQVSSQKSSEQRATTESIINEVLEYLMELNKNEYPELAAAYGDLCKLYEKQLLTKCEVLTLFQTLFSKNEKKLNLLEHHHHHH”, the “soluble on expression in E. coli” value is recorded as “soluble”. With “TKDFAFDLNVNMAHNVSKVKELAPEENVNYMFFNGDGNFPVKVGTRAGHKLGEIYATSLYKRNENGDIIVNENGLPMTVTNESEYVNKPIGNIQPKLTMSVSPTFTYKGITLSALFDMKFGGDIFSYSEMLATGNGLAKRTLNRGEENNYMMVFPGVTESGEVNTKQVSASEYYGALQAEDFIYDASFIKLKELSIGYSFPSSMLKKTPVNSLNVSFVARNLCYLMKHTPGTSPEGGYDTTMFSQAIDYASLPFTRTFGISINLGF”, the “soluble on expression in E. coli” value is on record as “not soluble”. For “MPKVAILIYSVDDIIATLAENEKKGIEIAGGEAEIFQVPDVSYKTEYATEEGKEAAKVAKTNADFSYKILTRETLVEYDYYLFGIPTKFGNFPAEWKSFWDSNTGGLWAKGSLHGKIAGLFVSGAISGKGDTEMCIMNAMSTLVHHGVIYVPLGYKNAYKELTDVEDVNGSCAWGAGCVSGIDGGRPPSLSELRVHQLQGKAFYDRIKDL” the value was “not soluble”.
